# Measurements taken from PMC9513805, “A natural transdifferentiation event involving mitosis is empowered by integrating signaling inputs with conserved plasticity factors”.
# How the values were obtained:
# [1] = target: T1, SOX-2;HMG-POP-1-FLAG (Caenorhabditis elegans;Caenorhabditis …, UniProt Q21305;Q10666 1-283;181-281, |); experiment: EMSA supershift; anti-FLAG; 20 mM Tris-HCl pH 8.0, 100 mM NaCl, 100 ug/mL BSA, 1 mM EDTA, 1 mM DTT, 0.1% NP-40; 20 min on ice (supershift 30 min at room temperature), 200 ng Cy5 probe; 6%; settings: protein: recombinant;recombinant; tags: N-terminal 6xHis, C-terminal HA (pSJ6094);N-terminal 6xHis, C-terminal FLAG (pSJ1107); copies: 1;1; label: Cy5 on forward strand; blunt
# T1 sequence (Q21305 whole entry, chain 1 of 2): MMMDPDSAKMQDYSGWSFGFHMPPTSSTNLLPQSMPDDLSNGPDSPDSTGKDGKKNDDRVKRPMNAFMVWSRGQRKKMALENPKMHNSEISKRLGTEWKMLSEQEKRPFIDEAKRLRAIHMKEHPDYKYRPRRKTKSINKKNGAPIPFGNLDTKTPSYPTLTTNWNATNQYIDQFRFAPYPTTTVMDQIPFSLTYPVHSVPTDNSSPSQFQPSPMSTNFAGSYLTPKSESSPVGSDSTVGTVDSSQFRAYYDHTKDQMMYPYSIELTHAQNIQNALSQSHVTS
# T1 sequence (Q10666 181-281, chain 2 of 2): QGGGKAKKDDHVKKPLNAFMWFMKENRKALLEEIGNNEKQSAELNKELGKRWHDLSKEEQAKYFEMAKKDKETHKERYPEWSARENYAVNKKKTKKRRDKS
# [2] = target: SOX-2;HMG-POP-1 (Caenorhabditis elegans;Caenorhabditis …, UniProt Q21305;Q10666 1-283;181-281, |); experiment: EMSA; SOX-2 125-500 nM added to HMG-POP-1; upper shift, most probably ternary complex; 20 mM Tris-HCl pH 8.0, 100 mM NaCl, 100 ug/mL BSA, 1 mM EDTA, 1 mM DTT, 0.1% NP-40; 20 min on ice (supershift 30 min at room temperature), 200 ng Cy5 probe; 6%; settings: protein: recombinant;recombinant; tags: N-terminal 6xHis, C-terminal HA (pSJ6094);N-terminal 6xHis (pSJ769); copies: 1;1; label: Cy5 on forward strand; blunt
# Chain of SOX-2;HMG-POP-1 (Q21305 whole entry, chain 1 of 2): as the sequence (Q21305 whole entry, chain 1 of 2) above
# Chain of SOX-2;HMG-POP-1 (Q10666 181-281, chain 2 of 2): as the sequence (Q10666 181-281, chain 2 of 2) above
# [3] = target: T1, SOX-2;HMG-POP-1-FLAG; experiment: EMSA; co-incubation; upper co-binding band, supershift series with anti-HA and/or anti-FLAG; 20 mM Tris-HCl pH 8.0, 100 mM NaCl, 100 ug/mL BSA, 1 mM EDTA, 1 mM DTT, 0.1% NP-40; 20 min on ice (supershift 30 min at room temperature), 200 ng Cy5 probe; 6%; settings: protein: recombinant;recombinant; tags: N-terminal 6xHis, C-terminal HA (pSJ6094);N-terminal 6xHis, C-terminal FLAG (pSJ1107); copies: 1;1; label: Cy5 on forward strand; blunt
Binder,binding result [1],binding result [2],binding result [3]
lim-6 intron 4 probe 1 (dsDNA) DNA 1: TACGATTTGCAAACAACAAACATTCCAGACAGAT DNA 2: ATCTGTCTGGAATGTTTGTTGTTTGCAAATCGTA,binds,binds,–
lim-6 intron 4 probe 2 (dsDNA) DNA 1: CTGCTACCGTAGTGCTTTGTTGATTTAACACACA DNA 2: TGTGTGTTAAATCAACAAAGCACTACGGTAGCAG,–,–,binds
